Values belong to the molecule of their own block, whether it stands above or below them.
Legend:
[1] = target: porphobilinogen synthase (PBGS) from Pieris brassicae (Pieris brassicae (endogenous in adult insects)); assay: native gel or EMSA; native PAGE at 4.5, 6.0, 7.5 and 9.75% polyacrylamide (Hedrick and Smith; buffer system of Davis) with reference proteins: 292.3 kDa for the holoenzyme, set against 36.5 kDa for the subunit by SDS/urea-PAGE; purified PBGS and a partially purified preparation
[2] = target: T1, porphobilinogen synthase (PBGS) (Pieris brassicae, UniProt A0A9P0XHI4); assay: biochemical
T1 construct: gene PIBRA_LOCUS11261
T1 sequence (A0A9P0XHI4 1-333): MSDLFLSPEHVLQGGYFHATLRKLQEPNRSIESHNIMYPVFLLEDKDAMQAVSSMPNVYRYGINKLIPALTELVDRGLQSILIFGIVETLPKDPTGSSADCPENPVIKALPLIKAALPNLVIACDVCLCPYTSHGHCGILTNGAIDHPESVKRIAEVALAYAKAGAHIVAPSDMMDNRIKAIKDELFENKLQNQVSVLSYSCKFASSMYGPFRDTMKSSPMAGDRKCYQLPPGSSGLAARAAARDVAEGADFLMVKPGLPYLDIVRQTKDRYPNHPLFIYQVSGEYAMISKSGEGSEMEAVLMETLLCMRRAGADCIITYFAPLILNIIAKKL

[3] = target: T1, porphobilinogen synthase (PBGS); assay: enzyme activity assay (PBG formation, Ehrlich's reagent, […] nm), Lineweaver-Burk analysis; type: biochemical
purified protein = substrate: NCC(=O)CCC(=O)O; assay: purified protein; conditions: zinc active site

Molecule: CC(=O)CC(=O)CCC(=O)O [SA, 4,6-dioxo-heptanoic acid]
IC50 [3]: 4.5 µM

B1: porphobilinogen synthase (PBGS) (Pieris brassicae) (protein)
chain: MSDLFLSPEHVLQGGYFHATLRKLQEPNRSIESHNIMYPVFLLEDKDAMQAVSSMPNVYRYGINKLIPALTELVDRGLQSILIFGIVETLPKDPTGSSADCPENPVIKALPLIKAALPNLVIACDVCLCPYTSHGHCGILTNGAIDHPESVKRIAEVALAYAKAGAHIVAPSDMMDNRIKAIKDELFENKLQNQVSVLSYSCKFASSMYGPFRDTMKSSPMAGDRKCYQLPPGSSGLAARAAARDVAEGADFLMVKPGLPYLDIVRQTKDRYPNHPLFIYQVSGEYAMISKSGEGSEMEAVLMETLLCMRRAGADCIITYFAPLILNIIAKKL
Km (purified protein): 360 µM

Now from value to molecule:

stoichiometry N [1]: 8
Molecule: porphobilinogen synthase (PBGS) from Pieris brassicae (enzyme)

Ki [2]: 340 µM
Molecule: CC(=O)CCC(=O)O [LA, levulinic acid]

From publication PMC2999460, “Porphobilinogen Synthase from the Butterfly, Pieris brassicae: Purification and Comparative Characterization” (2007)
